Here are results for 3 molecules from publication PMC2903050 (Journal of molecular biology, 2010).

Assay [1] deals with T1, botulinum neurotoxin serotype A light chain residues 1-448 (Clostridium botulinum, BoNT/A1 …, UniProt P0DPI0). Briefly: flow cytometry on cells. (In general: In flow cytometry, cells or beads pass a laser one at a time.)
Assay [2] deals with truncated BoNT/A Lc containing residues 1-425 (Clostridium botulinum, UniProt P0DPI0). Briefly: […].
Assay [3] concerns the target T1, botulinum neurotoxin serotype A light …. The assay is described as follows: KinExA. Background: Kinetic exclusion samples the free partner from a solution-phase mixture.
Target sequence in this assay (P0DPI0 1-448): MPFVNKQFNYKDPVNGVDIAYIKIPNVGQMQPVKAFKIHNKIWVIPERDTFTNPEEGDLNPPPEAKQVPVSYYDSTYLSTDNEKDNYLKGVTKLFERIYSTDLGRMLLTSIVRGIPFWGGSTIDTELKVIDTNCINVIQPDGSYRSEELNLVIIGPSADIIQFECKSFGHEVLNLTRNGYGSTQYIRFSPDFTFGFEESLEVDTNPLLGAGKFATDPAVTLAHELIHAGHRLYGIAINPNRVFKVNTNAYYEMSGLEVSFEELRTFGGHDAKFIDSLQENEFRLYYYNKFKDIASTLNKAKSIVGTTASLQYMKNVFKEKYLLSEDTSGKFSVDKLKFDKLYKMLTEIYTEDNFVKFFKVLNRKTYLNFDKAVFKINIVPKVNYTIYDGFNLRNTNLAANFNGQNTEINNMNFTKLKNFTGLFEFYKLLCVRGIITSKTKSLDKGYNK

Chain of truncated BoNT/A Lc containing residues 1-425 (P0DPI0 1-425): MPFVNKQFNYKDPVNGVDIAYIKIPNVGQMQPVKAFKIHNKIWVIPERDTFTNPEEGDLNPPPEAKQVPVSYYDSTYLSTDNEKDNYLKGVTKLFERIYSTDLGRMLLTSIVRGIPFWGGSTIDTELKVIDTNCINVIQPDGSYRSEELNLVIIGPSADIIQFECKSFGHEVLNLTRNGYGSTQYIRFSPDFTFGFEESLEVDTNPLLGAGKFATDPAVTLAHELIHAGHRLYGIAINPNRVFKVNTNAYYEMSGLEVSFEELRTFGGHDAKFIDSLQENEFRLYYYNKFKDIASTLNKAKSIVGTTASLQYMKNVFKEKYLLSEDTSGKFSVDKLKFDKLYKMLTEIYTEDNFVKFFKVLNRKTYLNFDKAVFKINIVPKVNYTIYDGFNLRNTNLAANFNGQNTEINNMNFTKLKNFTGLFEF

B1: Aa1 VHH, yeast displayed (VHH)
VHH: AVQLVDSGGGTLQAGKSLRLSCAISGLAFDGGAMGSEHRLTAGAMGWFRQAPGKDREFVAAISPRTDETYYAESLEGRFSVSRDAAATMVFLQADNVRLDDTASYYCAADEDVTPRVMGVIPHADHWGQGTLVTVSS
As usually defined, the Kd is the concentration at which binding is half-saturated. Read a high Kd as a looser complex. As to B1, binding in assay [1] was put at a Kd of 0.03 nM.

B2: Aa1 VHH, for crystal growing (VHH)
VHH: AVQLVDSGGGTLQAGKSLRLSCAISGLAFDGGAMGSEHRLTAGAMGWFRQAPGKDREFVAAISPRTDETYYAESLEGRFSVSRDAAATMVFLQADNVRLDDTASYYCAADEDVTPRVMGVIPHADHWGQGTLVTVSS
By stoichiometry N is commonly meant the number of molecules, sites or subunits per partner or assembly. As to B2, the “stoichiometry N” value in assay [2] was found to be 1.

B3: Aa1 VHH, purified (VHH)
VHH: AVQLVDSGGGTLQAGKSLRLSCAISGLAFDGGAMGSEHRLTAGAMGWFRQAPGKDREFVAAISPRTDETYYAESLEGRFSVSRDAAATMVFLQADNVRLDDTASYYCAADEDVTPRVMGVIPHADHWGQGTLVTVSS
What is called koff is the first-order rate constant of dissociation. Read a high koff as fast dissociation. The kon is a measure of how fast the partners come together. In assay [3], B3 had a dissociation constant (Kd) of 0.147 nM, a koff of 0.00666 s⁻¹ and a kon of 4.39e+07 M⁻¹ s⁻¹.
